This data set concerns the molecule itself. As to the kind of experiment: SDS-PAGE + MALDI-TOF; purified GbXΔNC heat-denatured in SDS sample buffer (2.5% β-mercaptoethanol), 15% SDS-PAGE; also 10–15% gradient gels (PhastSystem) in the absence and presence of DTT; bands identified by MALDI-TOF after tryptic digest.

B1: N- and C-terminally truncated Danio rerio globin X (GbXΔNC) (domain or fragment, Danio rerio (zebrafish), UniProt A0AC58HMV5 25-184, looked up)
chain: PAGLTANHIRLIKESWRLIQEDIAKVGIIMFVRLFETHPECKDVFFLFRDVEDLERLRTSRELRAHGLRVMSFIEKSVARLDQLERLETLALELGKSHYRYNAPPKYYGYVGAEFICAVRPILKDRWTPELEEAWKTLFQYVTSIMREGFLEEERNKRSN
notes: globin X (GbX) of zebrafish (Danio rerio), amino acids 25 to 184 (the globin core), cloned into pET3a; Heme protein; No tag is mentioned for the pET3a construct; also called recombinant truncated GbX; source: E. coli BL21(DE3)pLysS, purified (ammonium sulfate precipitation, ion-exchange, size exclusion chromatography)
Consider B1, for which the “stoichiometry N” value came out at 2.

The values above are taken from article PMC3176823, “A Membrane-Bound Vertebrate Globin” (PLoS ONE, 2011).
